No end group written: not given here.
Columns and labels:
[1] = biological target: T1, human SEMG2 full-length protein (human, UniProt Q02383 24-582, limits assumed); test: ELISA (FIG. 21B-D)
T1 construct: also called SEMG2 protein; semenogelin 2
T1 sequence: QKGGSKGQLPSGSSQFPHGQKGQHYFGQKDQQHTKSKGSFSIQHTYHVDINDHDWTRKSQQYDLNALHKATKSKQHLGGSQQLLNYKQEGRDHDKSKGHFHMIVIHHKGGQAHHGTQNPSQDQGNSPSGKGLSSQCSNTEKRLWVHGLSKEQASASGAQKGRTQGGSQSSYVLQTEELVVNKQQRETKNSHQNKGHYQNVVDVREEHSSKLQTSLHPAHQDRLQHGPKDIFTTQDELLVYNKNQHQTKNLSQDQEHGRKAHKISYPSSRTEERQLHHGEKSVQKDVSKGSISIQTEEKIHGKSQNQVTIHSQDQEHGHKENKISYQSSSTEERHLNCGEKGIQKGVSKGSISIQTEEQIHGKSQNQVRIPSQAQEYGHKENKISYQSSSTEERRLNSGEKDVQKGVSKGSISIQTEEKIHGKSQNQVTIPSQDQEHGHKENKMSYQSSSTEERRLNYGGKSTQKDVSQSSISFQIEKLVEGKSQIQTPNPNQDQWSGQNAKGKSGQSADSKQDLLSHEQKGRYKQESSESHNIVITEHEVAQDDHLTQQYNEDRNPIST

[2] = biological target: T2, BSA-conjugated human SEMG2 (497-509) polypeptide (human, also: coupled to BSA, site not given here); test: ELISA (FIG. 21B-D)
T2 peptide: QIEKLVEGKSQIQ

[3] = biological target: T1, human SEMG2 full-length protein; test: ELISA on SEMG2; the EC50 table prints no unit, the axis is log (antibody concentration, nM)
[4] = biological target: T3, SEMG2(354-403) fragment (human); test: ELISA, immobilized antigen SEMG2 (354-403)
T3 peptide: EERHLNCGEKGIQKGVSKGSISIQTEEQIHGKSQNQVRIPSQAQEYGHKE
Text: (§1) To clearly distinguish the binding epitopes of blocking antibodies (i.e., antibodies that can inhibit the binding between SEMG2 and CD27) and non-blocking antibodies, a corresponding ELISA analysis method was established. […] Anti-mouse or anti-rabbit secondary antibodies were then used to detect the corresponding bound antibodies.

[5] = biological target: T4, SEMG2(497-509) polypeptide QIEKLVEGKSQIQ (human); test: ELISA, immobilized antigen SEMG2 (497-509)
T4 peptide: QIEKLVEGKSQIQ
Text: as §1

[6] = biological target: T5, QIEKLVAGKSQIQ (not fully specified); test: ELISA, immobilized peptide QIEKLVAGKSQIQ
T5 construct: member of the group m41; the text speaks of glycine substitution, the sheet prints alanine
T5 peptide: QIEKLVAGKSQIQ
Text: (§2) FIG. 20 depicts the value detected by ELISA, i.e., OD₄₅₀ absorbance. […] This experiment is used to determine the precise amino acid epitopes that different monoclonal antibodies bind to, and the relative importance of each amino acid to the binding antibody.
To further precisely define the exact epitopes (specific to the level of single amino acid) to which blocking antibodies MM02, MM05, MM07, MM08, MM13, MM14 bind, corresponding ELISA analysis method was established. […] Anti-mouse or anti-rabbit secondary antibodies were then used to detect the corresponding bound antibodies.

[7] = biological target: T6, QIEKLVEGKAQIQ (not fully specified); test: ELISA, immobilized peptide QIEKLVEGKAQIQ
T6 construct: alanine at this position
T6 peptide: QIEKLVEGKAQIQ
Text: as §2

[8] = biological target: T7, SEMG2(563-574) fragment (human); test: ELISA, immobilized antigen SEMG2 (563-574)
T7 peptide: VAQDDHLTQQYN
Text: as §1

[9] = biological target: T8, QIEKLVEGKSQIA (not fully specified); test: ELISA, immobilized peptide QIEKLVEGKSQIA
T8 construct: alanine at this position
T8 peptide: QIEKLVEGKSQIA
Text: as §2

[10] = biological target: T9, QIEKLVEAKSQIQ; test: ELISA, immobilized peptide QIEKLVEAKSQIQ
T9 construct: member of the group m41; position 504 is glycine in SEMG2 and the sheet prints alanine there
T9 peptide: QIEKLVEAKSQIQ
Text: as §2

[11] = biological target: T10, QIEKAVEGKSQIQ (not fully specified); test: ELISA, immobilized peptide QIEKAVEGKSQIQ
T10 construct: alanine at this position
T10 peptide: QIEKAVEGKSQIQ
Text: as §2

[12] = biological target: T11, QAEKLVEGKSQIQ (not fully specified); test: ELISA, immobilized peptide QAEKLVEGKSQIQ
T11 construct: member of the group m41; the text speaks of glycine substitution, the sheet prints alanine
T11 peptide: QAEKLVEGKSQIQ
Text: as §2

[13] = biological target: T4, SEMG2(497-509) polypeptide QIEKLVEGKSQIQ; test: ELISA, immobilized peptide QIEKLVEGKSQIQ
Text: as §2

[14] = biological target: T12, QIEKLVEGASQIQ (not fully specified); test: ELISA, immobilized peptide QIEKLVEGASQIQ
T12 construct: member of the group m41; the text speaks of glycine substitution, the sheet prints alanine
T12 peptide: QIEKLVEGASQIQ
Text: as §2

[15] = biological target: T1, human SEMG2 full-length protein; test: ELISA, immobilized antigen SEMG2 (1-582)
Text: as §1

[16] = biological target: T13, QIEKLAEGKSQIQ (not fully specified); test: ELISA, immobilized peptide QIEKLAEGKSQIQ
T13 construct: member of the group m41; the text speaks of glycine substitution, the sheet prints alanine
T13 peptide: QIEKLAEGKSQIQ
Text: as §2

[17] = biological target: T14, QIAKLVEGKSQIQ (not fully specified); test: ELISA, immobilized peptide QIAKLVEGKSQIQ
T14 construct: member of the group m41; the text speaks of glycine substitution, the sheet prints alanine
T14 peptide: QIAKLVEGKSQIQ

[18] = biological target: T15, QIEKLVEGKSAIQ (not fully specified); test: ELISA, immobilized peptide QIEKLVEGKSAIQ
T15 construct: alanine at this position
T15 peptide: QIEKLVEGKSAIQ
Text: as §2

[19] = biological target: T1, human SEMG2 full-length protein; test: biolayer interferometry (ForteBio Blitz or Gator)
Experimental: The equilibrium dissociation constant (KD) of the antibody of the present invention binding to human SEMG2 was determined by biolayer interferometry (ForteBio Bltz or Gator instrument). […] 100 μl of SD buffer, antibody and SEMG2 were added to a 96-well black polystyrene half area microplate, respectively. Select the sensor location based on the sample location layout. KD values were analyzed using molecular interaction analysis software. In the experiments of the assays, the affinity constants of murine monoclonal antibodies and human antibodies H88-67, H88-93 and H88-96 are shown in Table 8, and the affinity and dissociation curves of SEMG2 and corresponding proteins are shown in FIG. 25.

[20] = biological target: T16, AIEKLVEGKSQIQ (not fully specified); test: ELISA, immobilized peptide AIEKLVEGKSQIQ
T16 construct: member of the group m41; the text speaks of glycine substitution, the sheet prints alanine
T16 peptide: AIEKLVEGKSQIQ
Text: as §2

[21] = biological target: T17, QIEKLVEGKSQAQ (not fully specified); test: ELISA, immobilized peptide QIEKLVEGKSQAQ
T17 construct: member of the group m41; the text speaks of glycine substitution, the sheet prints alanine
T17 peptide: QIEKLVEGKSQAQ
Text: as §2

[22] = biological target: T18, SEMG2(442-453) fragment (human); test: ELISA, immobilized antigen SEMG2 (442-453)
T18 peptide: IHGKSQNQVTIP
Text: as §1

[23] = biological target: T19, QIEALVEGKSQIQ (not fully specified); test: ELISA, immobilized peptide QIEALVEGKSQIQ
T19 construct: member of the group m41; the text speaks of glycine substitution, the sheet prints alanine
T19 peptide: QIEALVEGKSQIQ
Text: as §2

[24] = biological target: T1, human SEMG2 full-length protein; test: ELISA, plate coated with SEMG2 protein, anti-mouse secondary antibody; the EC50 table prints no unit, the axis is log (antibody concentration, nM)

B1: 67-3-67-3 (antibody, V domains shown)
VH: QVQLLESGGGVVQPGRSLRLSCAASGFTFSSYAMHWVRQASGKGLEWVAVISYDGSNKYYADSVKGRFTISRDNSKNTLYLQMNSLRAEDTAVYYCARMDNHGSPDYWGQGTLVTVSS
VL: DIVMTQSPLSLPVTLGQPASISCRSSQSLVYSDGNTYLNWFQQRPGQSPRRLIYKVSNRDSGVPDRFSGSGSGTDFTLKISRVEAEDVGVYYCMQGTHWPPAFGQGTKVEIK
fold higher affinity than the parent antibody (H88-67) [1]: > 10 fold | fold higher affinity than the parent antibody (H88-67) [2]: > 10 fold | EC50 [3]: 0.614 nM

B2: 67-3-67-5 (antibody, V domains shown)
VH: QVQLLESGGGVVQPGRSLRLSCAASGFTFSSYAMHWVRQASGKGLEWVAVISYDGSNKYYADSVKGRFTISRDNSKNTLYLQMNSLRAEDTAVYYCARMDNHGSPDYWGQGTLVTVSS
VL: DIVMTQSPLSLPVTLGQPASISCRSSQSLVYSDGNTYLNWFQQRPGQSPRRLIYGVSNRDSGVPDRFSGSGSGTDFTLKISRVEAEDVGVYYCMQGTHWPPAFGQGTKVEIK
fold higher affinity than the parent antibody (H88-67) [1]: > 10 fold | fold higher affinity than the parent antibody (H88-67) [2]: > 10 fold | EC50 [3]: 0.68 nM

B3: 67-9-67-3 (antibody, V domains shown)
VH: QVQLLESGGGVVQPGRSLRLSCAASGFTFSSYAMHWVRQASGKGLEWVAVISYDGSNKYYADSVKGRFTISRDNSKNTLYLQMNSLRAEDTAVYYCARMDSGGSPDYWGQGTLVTVSS
VL: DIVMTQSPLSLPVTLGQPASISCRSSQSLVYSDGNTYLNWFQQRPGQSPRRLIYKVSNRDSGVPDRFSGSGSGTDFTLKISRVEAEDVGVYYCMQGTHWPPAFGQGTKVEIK
fold higher affinity than the parent antibody (H88-67) [1]: > 10 fold | fold higher affinity than the parent antibody (H88-67) [2]: > 10 fold | EC50 [3]: 0.272 nM

B4: 67-3-67-4 (antibody, V domains shown)
VH: QVQLLESGGGVVQPGRSLRLSCAASGFTFSSYAMHWVRQASGKGLEWVAVISYDGSNKYYADSVKGRFTISRDNSKNTLYLQMNSLRAEDTAVYYCARMDNHGSPDYWGQGTLVTVSS
VL: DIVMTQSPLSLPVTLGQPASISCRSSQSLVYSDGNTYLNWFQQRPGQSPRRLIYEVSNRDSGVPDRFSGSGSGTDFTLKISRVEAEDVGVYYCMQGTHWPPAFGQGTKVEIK
fold higher affinity than the parent antibody (H88-67) [1]: > 10 fold | fold higher affinity than the parent antibody (H88-67) [2]: > 10 fold | EC50 [3]: 0.537 nM

B5: MM07 (antibody, V domains shown)
VH: QIQLVQSGPELKKPGETVRISCKASGYTLTTAGMQWVQKIPGKGLKWIGWINTHSGVAEFAEDFKGRFAFSLETSANTAYLQIRNLKNEDTATYFCARLGLLGYWGQGTTLTVSS
VL: DILLTQSPAILSVSPGERVSFSCRASQSIGTTIHWYQQRTNGSPRLLIKYASESISGIPSRFSGSGSGTDFTLSINSVESEDIADYYCQQSNSWPWTFGGGTKLEIKR
notes: The VH and VL begin with what look like leader peptides (MDWLW..., MVSSAQ...)
A450 absorbance [4]: 0.001 | binding result [4]: no binding | A450 absorbance [5]: 1.14 | OD450 absorbance [6]: 0.899 | OD450 absorbance [7]: 0.296 | A450 absorbance [8]: 0.012 | binding result [8]: no binding | OD450 absorbance [9]: 1.26 | OD450 absorbance [10]: 0.58 | OD450 absorbance [11]: 0.123 | OD450 absorbance [12]: 0.833 | OD450 absorbance [13]: 1.19 | OD450 absorbance [14]: 0.79 | A450 absorbance [15]: 1.14 | OD450 absorbance [16]: 0.814 | OD450 absorbance [17]: 0.48 | OD450 absorbance [18]: 1.16 | Kd [19]: 1.82 nM | OD450 absorbance [20]: 0.919 | OD450 absorbance [21]: 0.509 | A450 absorbance [22]: 0.011 | binding result [22]: no binding | OD450 absorbance [23]: 0.822

B6: MM08 (antibody, IgG1, V domains shown)
VH: QVQLQQPGAELVRPGASVKLSCKSSDYTFTRYWMNWVKQRPGQGLEWIGMIDPSDSETHHNQMFKDKATLTVDKSSSTAYMQLSSLTSEDSAVYFCARYLGGKEGSFDYWGQGTTLTVSS
VL: DIVLTQSPSSLAVSAGERVTMSCKSSQSLFNSRTRKNYLAWYQQKPGQSPKLLLYWASTRESGVPDRFTGSGSGTDFTLTISSVKTEDLAVYYCKQSYELPWTFGGGTKLEMKR
A450 absorbance [4]: 0.012 | binding result [4]: no binding | A450 absorbance [5]: 1.14 | OD450 absorbance [6]: 0.566 | OD450 absorbance [7]: 0.023 | A450 absorbance [8]: 0.001 | binding result [8]: no binding | OD450 absorbance [9]: 1.19 | EC50 [24]: 0.418 nM | OD450 absorbance [10]: 0.824 | OD450 absorbance [11]: 0.213 | OD450 absorbance [12]: 0.671 | OD450 absorbance [13]: 1.26 | OD450 absorbance [14]: 0.939 | A450 absorbance [15]: 1.13 | OD450 absorbance [16]: 0.509 | OD450 absorbance [17]: 0.544 | OD450 absorbance [18]: 1.22 | Kd [19]: 2.34 nM | OD450 absorbance [20]: 0.942 | OD450 absorbance [21]: 0.798 | A450 absorbance [22]: 0.008 | binding result [22]: no binding | OD450 absorbance [23]: 0.789

B7: MM15 (antibody, IgG2a, V domains shown)
VH: QVQLKESGPGLVAPSQSLSITCTVSGFSLTRYGVSWVRQTPGKGLEWLGIIWGDGSTNYHSALISRLSISKDNSKSQVFLKLNSLQTDDTATYYCAKQERFSDGYYDGFAYWGQGTLVTVSA
VL: QIVLTQSPAIMSASPGEKVTITCSASSSVSYMHWFQQKPGTSPKLWIYSTSNLASGVPARFSGSGSGTSYSLTISRMEAEDAATYYCQQRSSYPFTFGSGTKLEIKR
EC50 [24]: 0.444 nM

Reference: patent publication US20230080534A1 (SHANGHAI BIOTROY BIOTECHNIQUE, published 2023)
